Legend:
Assay in all cases: cell_activity
[1] = test system: SCL enhancer TALE-LSD1 fusion (synthetic construct; LSD1 Homo sapiens); conditions: K562 ChIP-qPCR vs mCherry; H3K27ac reduced >4-fold; target assigned to #4 by inference
[2] = test system: TALE #14-LSD1 fusion (synthetic construct; LSD1 Homo sapiens); conditions: K562 3'DGE confirmed by RT-qPCR; #14 identified via cDNA qPCR primer set in Table 2
[3] = test system: TALE #25-LSD1 fusion (ZFPM2 +10 enhancer) (synthetic construct; LSD1 Homo sapiens); conditions: K562 RT-qPCR; TALE #25 without LSD1 had no effect on ZFPM2
[4] = test system: TALE #28-LSD1 fusion (ZFPM2 +45 enhancer) (synthetic construct; LSD1 Homo sapiens); conditions: K562; histone modification levels reduced at target; expression change not statistically significant; +45 assigned to #28 from coordinates
[5] = test system: TALE #11-LSD1 fusion (ZFPM2 +16 enhancer) (synthetic construct; LSD1 Homo sapiens); conditions: K562; histone modification levels reduced at target; expression change not statistically significant; +16 assigned to #11 from coordinates

TCCGTGGCTGCCAGTCTG (double strand) [SCL enhancer TALE target (TALE #4, chr1:47,647,018)]
activity (fold H3K4me2 reduction) [1]: 3

TAGCCGCGAGGAAGGCG (double strand) [TALE #14 target chrX:49,023,709]
activity (fold nearby gene down-regulation) [2]: > 1.5

TTAAGCTTCTGAAGTCAG (double strand) [TALE #25 target chr8:106,341,287]
activity (fold ZFPM2 expression reduction) [3]: 2

TAAGTCTACATATAGTATCC (double strand) [TALE #28 target chr8:106,376,850]
activity (% ZFPM2 expression reduction) [4]: 22

TCCAGTCCCTGGCTCCCATG (double strand) [TALE #11 target chr8:106,347,824]
activity (% ZFPM2 expression reduction) [5]: 13

From patent US20190359951
